Reference: patent US12324827B2, “Combination therapy for the treatment of migraines” (The University of Chicago, priority 2019, dated 2025)
“Also recorded” adds a separate entry of the source.

How the values were obtained:
[1] = Blood glucose after nose-to-brain (N2B) delivery of IGF-1; type: in vivo, Wistar rats; conditions: for blood glucose level: n=4/group; for hypoglycemia: after nasal (N2B) delivery of IGF-1
Method: (§1) N2B delivery of 150 μg human recombinant IGF-1 (#191-G1; R&D Systems, Minneapolis, MN) in 50 μL sodium succinate buffer followed the previously described approach (21,51) that was based on the techniques of Liu and coworkers (24) in the recording laboratory under isoflurane anesthesia with spontaneous ventilation.
Blood glucose was monitored in a subset of animals. Immediately before N2B treatments and while anesthetized, blood glucose was sampled at time zero using a sterile, 27 gauge hypodermic needle to puncture the tip of the tail. A second drop of blood from punctures was used for glucose measurements (Contour Next EZ; Ascensia Diabetes Care, US, Inc.; Parsippany, NJ). After N2B treatments (IGF-1 or vehicle), animals were briefly re-anesthetized and maintained as above for each blood draw done over time (i.e., 0.3, 3, 6, and 24 hours).

trigeminal ganglion CGRP = assay: CGRP immunostaining of trigeminal ganglion after recurrent spreading depression; type: in vivo, rat; conditions: n=5/group
Method: as §1
Induction of recurrent SD followed previously published aseptic techniques from the inventors' laboratory (8, 13, 21, 25, 26, 51) (FIG. 4). […]
Imaging was performed using a Photometrics self-calibrating digital camera QuantEM-512SC camera (500×500 pixels; Photometrics, Tucson, AZ) run on MetaMorph software (v. 7.0.4; Molecular Devices, Sunnyvale, CA) under blinded conditions (as previously described (13, 20-22). Image exposure, camera gain and thresholding were uniformly set (i.e., equivalently for experimental and sham groups for each imaging metric (i.e., MDA, CGRP and c-fos). Resultant images were digitally stored as TIFF files for subsequent analyses that continued under blinded conditions where image integrated fluorescence intensity was registered using MetaMorph software for MDA and CGRP.
Images of MDA and CGRP were analyzed while blinded and later decoded to ratios of experimental/sham image integrated optical intensity, a sensitive metric that not only accounts for the area but also the pixel intensity of related image fluorescence. […]

[2] = Blood glucose after nose-to-brain (N2B) delivery of IGF-1; type: in vivo, Wistar rats; conditions: 1.0-hour after N2B IGF-1 150 μg, n=4/group

Substance: IGF-1: human recombinant IGF-1 (#191-G1; R&D Systems), 150 μg in 50 μL sodium succinate buffer, delivered nose-to-brain
- blood glucose level ([1]; 0.3-hour after N2B IGF-1 150 μg, non-fasted rats): 196 ± 22 mg/dL
- blood glucose level ([1]; 3.0-hour after N2B IGF-1 150 μg): 114 ± 14 mg/dL
- blood glucose level ([1]; 6.0-hour after N2B IGF-1 150 μg): 134 ± 7 mg/dL
- blood glucose level ([1]; 24-hour after N2B IGF-1 150 μg): 150 ± 40 mg/dL
- hypoglycemia [1]: did not induce hypoglycemia; also recorded: did not see evidence of hypoglycemia; also recorded: did not evoke hypoglycemia; also recorded: no evidence of hypoglycemia; also recorded: did not cause hypoglycemia; also recorded: no hypoglycemic effect; also recorded: did not trigger hypoglycemia
- hypoglycemia ([1]; listed as insulin-like growth factor-1): no impact on blood glucose levels occurred
- lowest IGF-1 glucose-related level seen ([1]; normal range for Wistar rats 85-132 mg/dL, control 132 mg/dL at time 0): 114 mg/dL
- log-ratio (IGF-1/sham) of CGRP immunostaining after recurrent CSD (trigeminal ganglion CGRP): −0.90±0.15
- blood glucose level [2]: 139 ± 24 mg/dL
